Data as given in publication PMC5699047 (Proceedings of the National Academy of Sciences of the …, 2017).

Target: T1, MBP-COP1 (Arabidopsis, UniProt P43254 1-675)
T1 sequence (looked up): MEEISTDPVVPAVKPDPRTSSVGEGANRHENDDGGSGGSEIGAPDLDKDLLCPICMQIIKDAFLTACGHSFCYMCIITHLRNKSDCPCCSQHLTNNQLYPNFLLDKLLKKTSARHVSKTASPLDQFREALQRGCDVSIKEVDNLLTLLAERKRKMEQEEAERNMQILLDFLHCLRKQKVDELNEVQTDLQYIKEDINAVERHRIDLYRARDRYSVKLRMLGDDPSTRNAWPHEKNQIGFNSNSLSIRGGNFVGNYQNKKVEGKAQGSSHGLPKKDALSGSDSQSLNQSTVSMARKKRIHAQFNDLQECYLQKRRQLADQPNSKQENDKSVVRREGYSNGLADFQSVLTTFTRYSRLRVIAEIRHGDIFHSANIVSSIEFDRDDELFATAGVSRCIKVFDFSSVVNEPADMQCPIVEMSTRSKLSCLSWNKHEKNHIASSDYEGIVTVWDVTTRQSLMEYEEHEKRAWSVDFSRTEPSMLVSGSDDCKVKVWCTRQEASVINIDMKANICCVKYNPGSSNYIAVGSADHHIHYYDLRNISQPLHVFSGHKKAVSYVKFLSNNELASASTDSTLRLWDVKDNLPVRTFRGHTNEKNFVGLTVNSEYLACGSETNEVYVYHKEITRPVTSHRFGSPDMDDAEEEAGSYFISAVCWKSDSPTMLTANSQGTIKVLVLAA
Assay: pull-down

B1: GST-WDL3 (natural protein)
chain: not shown
binding result: binds
